In the supplement of paper PMC6755084:

B1: F1*; the commonest letter at each place (parent)
chain: GAGACCGCAACTGAAAAGTTGTTATCACTTGTCGTAAGACACTTTGGATGGGTTGAAGTTCTGCACGTAGAAGCAAAAGGC

Variants of: B1
Experiment: fraction ligated after 30 min (ligated reads / total reads); higher = more ligase activity
Conditions: with F1*sub RNA substrate (template-directed ligation), 42 °C
Method in brief: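 Ribozyme variants were transcribed with T7 from PCR-amplified oligo-pool templates and gel-purified. Ligated and unligated bands, separated on gel, were reverse transcribed with barcoded primers and sequenced on a MiSeq, with core bases filtered at quality ≥20. Fraction ligated per variant was computed as ligated reads divided by total reads.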
T35A G38C gave a fraction ligated of 0.855. T35A G38T gave a fraction ligated of 0.855. Variant T35A G38A has a fraction ligated of 0.863. A36T G55A showed a fraction ligated of 0.842. A36T G55T was tested, and the fraction ligated was 0.836. In the case of A36T G55C, the fraction ligated is reported as 0.817. T35A C40A gave a fraction ligated of 0.811. T35A C40G gave a fraction ligated of 0.834. T35A C40T gave a fraction ligated of 0.834. T35G G38A gave a fraction ligated of 0.847. T35G G38T showed a fraction ligated of 0.845. For T35G G38C, the fraction ligated was 0.865. Variant T35G A41C has a fraction ligated of 0.808. In the case of T35G A41G, the fraction ligated is reported as 0.816. Variant T35G A41T has a fraction ligated of 0.839. A36T T45C showed a fraction ligated of 0.783. Variant A36T T45A has a fraction ligated of 0.778. With A36T T45G the fraction ligated was 0.385. For A36G A48G, the fraction ligated was 0.798. A36G A48T was tested, and the fraction ligated was 0.0834. Variant A36G A48C has a fraction ligated of 0.773. T35C G55T showed a fraction ligated of 0.804. For T35C G55A, the fraction ligated was 0.841. T35C G55C gave a fraction ligated of 0.796. With A36G G46T the fraction ligated was 0.825. A36G G46A gave a fraction ligated of 0.836. Variant A36G G46C has a fraction ligated of 0.803. Variant A36G G50T has a fraction ligated of 0.751. With A36G G50C the fraction ligated was 0.117. In the case of A36G G50A, the fraction ligated is reported as 0.41. With T35C G47C the fraction ligated was 0.213. With T35C G47T the fraction ligated was 0.36. For T35C G47A, the fraction ligated was 0.811. Work on T35C C40T yielded a fraction ligated of 0.862. Variant T35C C40A has a fraction ligated of 0.84. T35C C40G gave a fraction ligated of 0.817. With A36G T45A the fraction ligated was 0.785. A36G T45G showed a fraction ligated of 0.353. Variant A36G T45C has a fraction ligated of 0.614. Variant A36T A56G has a fraction ligated of 0.795. For A36T A56C, the fraction ligated was 0.797. In the case of A36T A56T, the fraction ligated is reported as 0.823. In the case of A36G A41C, the fraction ligated is reported as 0.795. For A36G A41T, the fraction ligated was 0.834. Work on A36G A41G yielded a fraction ligated of 0.788. A36G G47A was tested, and the fraction ligated was 0.764. With A36G G47T the fraction ligated was 0.0714. Work on A36G G47C yielded a fraction ligated of 0.0195. In the case of T35G A37T, the fraction ligated is reported as 0.846. Work on T35G A37G yielded a fraction ligated of 0.847. T35G A37C showed a fraction ligated of 0.868. G34T T45A showed a fraction ligated of 0.794. In the case of G34T T45C, the fraction ligated is reported as 0.757. G34T T45G gave a fraction ligated of 0.385. Variant A36C G47A has a fraction ligated of 0.81. With A36C G47C the fraction ligated was 0.224. A36C G47T was tested, and the fraction ligated was 0.356. A36C T44C showed a fraction ligated of 0.815. With A36C T44G the fraction ligated was 0.827. A36C T44A was tested, and the fraction ligated was 0.827. Variant A36T A39T has a fraction ligated of 0.836. Work on A36T A39G yielded a fraction ligated of 0.842. A36T A39C showed a fraction ligated of 0.821. T35G G55A was tested, and the fraction ligated was 0.819. Work on T35G G55C yielded a fraction ligated of 0.807. In the case of T35G G55T, the fraction ligated is reported as 0.809. For A36C A48C, the fraction ligated was 0.778. For A36C A48G, the fraction ligated was 0.784. In the case of A36C A48T, the fraction ligated is reported as 0.8. T35C A41G gave a fraction ligated of 0.783. T35C A41C showed a fraction ligated of 0.777. In the case of T35C A41T, the fraction ligated is reported as 0.819. Variant A36C G55C has a fraction ligated of 0.787. For A36C G55T, the fraction ligated was 0.797. A36C G55A was tested, and the fraction ligated was 0.827. For T35C G50A, the fraction ligated was 0.608. Variant T35C G50C has a fraction ligated of 0.437. With T35C G50T the fraction ligated was 0.753. A36T A57C was tested, and the fraction ligated was 0.823. Work on A36T A57G yielded a fraction ligated of 0.841. With A36T A57T the fraction ligated was 0.824. A37C gave a fraction ligated of 0.849. For T35G C40G, the fraction ligated was 0.837. T35G C40T gave a fraction ligated of 0.851. Variant T35G C40A has a fraction ligated of 0.838. Work on T35A A57C yielded a fraction ligated of 0.82. T35A A57G was tested, and the fraction ligated was 0.847. Variant T35A A57T has a fraction ligated of 0.809. In the case of T35G G50A, the fraction ligated is reported as 0.659. T35G G50C showed a fraction ligated of 0.486. T35G G50T was tested, and the fraction ligated was 0.795. Variant T35A T45A has a fraction ligated of 0.797. Variant T35A T45C has a fraction ligated of 0.788. With T35A T45G the fraction ligated was 0.408. With A36T T44G the fraction ligated was 0.847. Variant A36T T44C has a fraction ligated of 0.82. A36T T44A gave a fraction ligated of 0.844. T35A G50C showed a fraction ligated of 0.474. Variant T35A G50A has a fraction ligated of 0.638. Variant T35A G50T has a fraction ligated of 0.792. In the case of T35A T49A, the fraction ligated is reported as 0.763. For T35A T49C, the fraction ligated was 0.768. T35A T49G was tested, and the fraction ligated was 0.817. In the case of A36T A41T, the fraction ligated is reported as 0.819. A36T A41C showed a fraction ligated of 0.774. For A36T A41G, the fraction ligated was 0.794. Work on T35A A48C yielded a fraction ligated of 0.752. T35A A48G was tested, and the fraction ligated was 0.801. With T35A A48T the fraction ligated was 0.8. In the case of T35C, the fraction ligated is reported as 0.839. Work on T35G yielded a fraction ligated of 0.839. For T35A, the fraction ligated was 0.836. A36T T49C showed a fraction ligated of 0.742. A36T T49A showed a fraction ligated of 0.797. With A36T T49G the fraction ligated was 0.797. With A36C G50T the fraction ligated was 0.746. With A36C G50A the fraction ligated was 0.619. Work on A36C G50C yielded a fraction ligated of 0.454. With T35A C42T the fraction ligated was 0.85. With T35A C42A the fraction ligated was 0.845. T35A C42G showed a fraction ligated of 0.847. T35C C42T was tested, and the fraction ligated was 0.856. T35C C42G was tested, and the fraction ligated was 0.851. Work on T35C C42A yielded a fraction ligated of 0.841. With T35A G47C the fraction ligated was 0.221. In the case of T35A G47T, the fraction ligated is reported as 0.398. Work on T35A G47A yielded a fraction ligated of 0.811. T35A T44A showed a fraction ligated of 0.838. T35A T44G was tested, and the fraction ligated was 0.821. T35A T44C was tested, and the fraction ligated was 0.826. Work on A36T G50C yielded a fraction ligated of 0.467. In the case of A36T G50T, the fraction ligated is reported as 0.775. With A36T G50A the fraction ligated was 0.642. For T35C A36C, the fraction ligated was 0.8. For T35C A36G, the fraction ligated was 0.847. For T35C A36T, the fraction ligated was 0.839. T35C T49G showed a fraction ligated of 0.804. In the case of T35C T49C, the fraction ligated is reported as 0.731. Work on T35C T49A yielded a fraction ligated of 0.756. Variant T35G T45C has a fraction ligated of 0.747. Work on T35G T45G yielded a fraction ligated of 0.388. For T35G T45A, the fraction ligated was 0.772. T35G G47C was tested, and the fraction ligated was 0.222. With T35G G47A the fraction ligated was 0.78. With T35G G47T the fraction ligated was 0.391. A36G A56T gave a fraction ligated of 0.873. For A36G A56C, the fraction ligated was 0.773. With A36G A56G the fraction ligated was 0.814. A36T A37C was tested, and the fraction ligated was 0.838. A36T A37G gave a fraction ligated of 0.842. Variant A36T A37T has a fraction ligated of 0.851. T35G A57C showed a fraction ligated of 0.805. T35G A57G was tested, and the fraction ligated was 0.838. With T35G A57T the fraction ligated was 0.804. In the case of G34T T49A, the fraction ligated is reported as 0.756. For G34T T49C, the fraction ligated was 0.633. Variant G34T T49G has a fraction ligated of 0.772. A36T C42G gave a fraction ligated of 0.835. Variant A36T C42A has a fraction ligated of 0.834. For A36T C42T, the fraction ligated was 0.856. In the case of T35C T43C, the fraction ligated is reported as 0.777. T35C T43G gave a fraction ligated of 0.797. T35C T43A gave a fraction ligated of 0.839. Work on A36T A48T yielded a fraction ligated of 0.792. Variant A36T A48G has a fraction ligated of 0.781. A36T A48C was tested, and the fraction ligated was 0.767. For T35A T43A, the fraction ligated was 0.84.
